# Experimental data published in PMC11617674 (2024).
# T1: GlnK (Escherichia coli (strain …, UniProt P0AC55,P0AC55,P0AC55))
# T1 chain 1: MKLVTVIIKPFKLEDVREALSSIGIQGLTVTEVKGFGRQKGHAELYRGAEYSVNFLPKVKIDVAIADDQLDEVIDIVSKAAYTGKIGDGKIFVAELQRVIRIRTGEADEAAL
# T1 chain 2: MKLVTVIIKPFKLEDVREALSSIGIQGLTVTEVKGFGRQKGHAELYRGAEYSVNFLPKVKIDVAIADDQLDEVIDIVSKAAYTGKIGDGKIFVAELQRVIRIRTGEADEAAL
# T1 chain 3: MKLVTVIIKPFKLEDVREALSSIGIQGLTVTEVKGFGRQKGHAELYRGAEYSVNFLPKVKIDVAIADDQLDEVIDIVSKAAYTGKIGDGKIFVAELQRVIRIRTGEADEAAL
# B1: UmpH (protein)
# chain: MTIKNVICDIDGVLMHDNVAVPGAAEFLHGIMDKGLPLVLLTNYPSQTGQDLANRFATAGVDVPDSVFYTSAMATADFLRRQEGKKAYVVGEGALIHELYKAGFTITDVNPDFVIVGETRSYNWDMMHKAAYFVANGARFIATNPDTHGRGFYPACGALCAGIEKISGRKPFYVGKPSPWIIRAALNKMQAHSEETVIVGDNLRTDILAGFQAGLETILVLSGVSSLDDIDSMPFRPSWIYPSVAEIDVI
# Molecular target: T1, GlnK
# Test: BLI (His-PII trimer on sensor), ADP
binder,measurement,value
B1,Kd,7.8 nM
